Measurements: US20110081661A1, “Modified photoproteins with increased affinity for calcium and enhanced bioluminescence and uses thereof” (Millipore Corporation, priority 2009, published 2011)
Numbering of substitutions follows the chain as printed. Numbers in names are those of the source.

T1: GIP Receptor (Homo sapiens, UniProt P48546)
T1 construct: host or cells: HEK293T
T1 sequence (P48546 22-466): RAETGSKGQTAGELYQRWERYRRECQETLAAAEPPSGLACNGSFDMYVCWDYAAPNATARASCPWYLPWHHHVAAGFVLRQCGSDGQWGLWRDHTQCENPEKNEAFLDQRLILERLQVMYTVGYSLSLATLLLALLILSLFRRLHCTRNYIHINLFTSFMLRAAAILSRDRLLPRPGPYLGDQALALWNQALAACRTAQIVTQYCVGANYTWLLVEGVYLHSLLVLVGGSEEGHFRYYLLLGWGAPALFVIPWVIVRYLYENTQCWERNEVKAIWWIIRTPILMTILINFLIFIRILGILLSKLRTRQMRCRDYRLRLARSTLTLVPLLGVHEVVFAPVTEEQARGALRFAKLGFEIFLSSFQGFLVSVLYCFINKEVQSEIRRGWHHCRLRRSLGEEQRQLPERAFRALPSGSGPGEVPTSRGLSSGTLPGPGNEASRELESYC

B1: Mt-aequorin: Mitochondrial Wild-type Aequorin (mt-Aequorin), SEQ ID NO:6 (protein, listed as Aequorea victoria)
chain: MSVLTPLLLRGLTGSARRLPVPRAKIHSLPPEGKLTSDFDNPRWIGRHKHMFNFLDVNHNGKISLDEMVYKASDIVINNLGATPEQAKRHKDAVEAFFGGAGMKYGVETDWPAYIEGWKKLATDELEKYAKNEPTLIRIWGDALFDIVDKDQNGAITLDEWKAYTKAAGIIQSSEDCEETFRVCDIDESGQLDVDEMTRQHLGFWYTMDPACEKLYGGAVP
B2: Mt-clytin K168D: Mitochondrial K168D modified Clytin, SEQ ID NO:10 (protein)
chain: MSVLTPLLLRGLTGSARRLPVPRAKIHSLPPEGKLRPNFDNPKWVNRHKFMFNFLDINGDGKITLDEIVSKASDDICAKLGATPEQTKRHQDAVEAFFKKIGMDYGKEVEFPAFVDGWKELANYDLKLWSQNKKSLIRDWGEAVFDIFDKDGSGSISLDEWKAYGRISGICSSDEDAEKTFKHCDLDNSGDLDVDEMTRQHLGFWYTLDPNADGLYGNFVP
B3: Mt-clytin wt: Mitochondrial Wild-type Clytin (mt-Clytin), SEQ ID NO:5, with COX8 mitochondrial leader sequence (protein, listed as Clytia gregaria)
chain: B2 chain with D191K
B4: Cyto-clytin K168D: K168D modified Clytin amino acid sequence, SEQ ID NO:9; cytosolic (protein)
chain: MADTASKYAVKLRPNFDNPKWVNRHKFMFNFLDINGDGKITLDEIVSKASDDICAKLGATPEQTKRHQDAVEAFFKKIGMDYGKEVEFPAFVDGWKELANYDLKLWSQNKKSLIRDWGEAVFDIFDKDGSGSISLDEWKAYGRISGICSSDEDAEKTFKHCDLDNSGDLDVDEMTRQHLGFWYTLDPNADGLYGNFVP

Tests used:
Assay type in all cases: cell-based
[1] = Calcium affinity of mitochondrial photoproteins, transient co-transfection with H1 histamine receptor in HEK293T cells (FIG. 2); settings: HEK293T cells co-transfected with H1 histamine receptor; Triton X-100, free calcium 17 nM to 39.6 μM; total bioluminescence at 20 seconds; read-out: EC50 value (affinity for Ca^2+)
Excerpt: (§1) Following the generation of modified forms of Clytin, the various variants were compared with wt-Aequorin for their affinity for intracellular calcium in transient transfection assays using co-transfection with the H1 histamine receptor (Genbank Accession No. NM_000861, obtained by PCR using H1-specific primers from a human brain cDNA library, forward primer 5′-[…] ATTCCTC-3′ (SEQ ID NO:60), reverse primer 5′-[…] AATTCTC-3′ (SEQ ID NO:61).
(§2) In an exemplary experiment, HEK293T cells (ATCC-CRL-11268) were transiently co-transfected with 2 μgs of each of pcDNA3.1-H1 (containing the cDNA encoding the H1 histamine receptor) and pcDNA3.1 containing the cDNAs encoding wild type mitochondrial Clytin (referred to as mt-Clytin), modified mitochondrial Clytin having a lysine to aspartic acid mutation at position 168 (referred to as mt-Clytin K168D), modified mitochondrial Clytin having a lysine to glutamic acid mutation at position 168 (referred to as mt-Clytin K168E), wild-type mitochondrial Obelin (referred to as mt-Obelin) or wild type mitochondrial Aequorin (referred to as mt-Aequorin) using the Targefect-293 reagent (TARGETING SYSTEMS). 48 hours later, the cells were detached using Accutase (MILLIPORE), centrifuged, and resuspended in […] in FreeStyle293 media (INVITROGEN), for incubation for 3-4 hours at room temperature in the dark. After incubation, the cells were centrifuged and resuspended in HBSS/HEPES buffer without Ca^2+ at a density of 1×10^6 cells/ml. Next, 100 μl/well of cell suspension for each transfection were added by the use of a Victor2 luminometer plate reader (WALLAC, […]), to a 96-well plate containing 50 μL/well Triton X-100 in MOPS/KCl buffer containing 10 mM EGTA and a series of Ca^2+ concentrations, such that free calcium concentrations ranged from 17 nM to 39.6 μM, followed by for measurement of total bioluminescence at 20 seconds.

[2] = Calcium EC50 of mitochondrially targeted photoproteins in HEK293T cells without cotransfected GPCR or G protein (Table II); settings: no cotransfected GPCR or G protein
Excerpt: as §2
(§3) Signal to background ratio was calculated as the signal induced by maximal GIP (1 μM) divided by the signal induced by buffer alone. The EC50 value for calcium was determined as described above for FIG. 2 for mitochondrially targeted photoproteins transfected into HEK293T cells in the absence of a cotransfected GPCR or G protein. Affinity for calcium was correlated with the properties of the amino acid side chain at residue 168 of Clytin.

H1 histamine receptor [3] = target: T2, H1 histamine receptor (Homo sapiens, UniProt P35367); test: GPCR-mediated versus total bioluminescence in U-2OS cells (FIG. 4); settings: 10 μM histamine vs Triton X-100 with 1 mM calcium
T2 construct: expressed in transfected cells; host or cells: U-2OS
T2 sequence (P35367 whole entry): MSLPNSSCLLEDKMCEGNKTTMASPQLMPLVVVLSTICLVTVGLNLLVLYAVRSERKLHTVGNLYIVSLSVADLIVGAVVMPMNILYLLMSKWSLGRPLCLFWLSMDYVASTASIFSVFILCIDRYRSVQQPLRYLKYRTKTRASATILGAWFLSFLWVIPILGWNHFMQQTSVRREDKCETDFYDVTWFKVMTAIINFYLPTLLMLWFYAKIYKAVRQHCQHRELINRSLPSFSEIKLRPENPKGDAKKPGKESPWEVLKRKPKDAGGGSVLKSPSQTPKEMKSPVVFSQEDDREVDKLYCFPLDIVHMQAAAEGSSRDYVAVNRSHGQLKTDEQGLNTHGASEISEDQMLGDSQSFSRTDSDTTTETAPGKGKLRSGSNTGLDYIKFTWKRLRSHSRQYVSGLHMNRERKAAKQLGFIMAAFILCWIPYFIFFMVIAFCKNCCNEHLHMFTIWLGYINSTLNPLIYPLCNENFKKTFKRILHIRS
Experimental: In another experiment, the ability of the various photoproteins to detect calcium flux in live cells was assessed by adding varying concentrations of histamine to cells in order to activate the H1 histamine receptor followed by measurement of bioluminescence of the various photoproteins. U-2OS cells were transfected with a cDNA encoding H1 histamine receptor along with a cDNA encoding either a wild-type photoprotein or a modified photoprotein according to the invention, as described above in Example 2, except that Lipofectamine-2000 (INVITROGEN) was used as the transfection reagent. On the second day, the cells were trypsinized, counted, and plated in a white tissue-culture treated 96-well plate (COSTAR) at a density of about 50,000 cells/well in growth media consisting of DMEM containing 10% fetal bovine serum, non-essential amino acids, HEPES and penicillin/streptomycin. On the third day, the medium was removed and cells were washed once with 200 μl/well of HBSS/HEPES (containing Ca^2+). Cells were subsequently incubated with 5 μM coelenterazine in HBSS/HEPES (containing Ca^2+) in a volume of 200 μl/well, for 3-4 hours at room temperature in the dark. After incubation, the coelenterazine solution was removed and cells were washed and replaced with HBSS/HEPES buffer containing both Ca^2+ and Mg^2+. 50 μl/well of histamine at varying concentrations in HBSS/HEPES containing both Ca^2+ and Mg^2+ was added to the cells and total bioluminescence was measured at 20 seconds using a Victor2 luminometer.
In an exemplary experiment, U-2OS cells were transfected, plated and loaded with coelenterazine as described in Example 3. Luminescence induced by buffer alone or by 10 μM histamine was measured also as described in Example 3. Additionally, luminescence induced by addition of Triton X-100 in the presence of 1 mM calcium was also determined in order to assess the total amount of active photoprotein detectable using saturating calcium concentrations in cells.

GIP Receptor = target: T1, GIP Receptor; test: GIP receptor-mediated bioluminescence in HEK293T cells with chimeric promiscuous G protein (FIG. 5, Table II); settings: for Max signal with GIP (RLU × 10^−5) / EC50 / signal intensities, GIP dose response (FIG. 5) / EC50 for GIP (nM): HEK293T cells; for Max signal with GIP (RLU × 10^−5) / EC50 / EC50 for GIP (nM): GIP Receptor + promiscuous G protein; for EC50 / EC50 for GIP (nM): luminescence vs GIP concentration; for % GPCR/total: signal induced by maximal GIP (1 μM) as percentage of signal induced by Triton X-100 with 1 mM Ca^2+; for Signal: background with GIP: signal induced by maximal GIP (1 μM) divided by signal induced by buffer alone; for signal intensities, GIP dose response (FIG. 5): GIP 10^−11 to 10^−6 M
Experimental: However, coexpression of GIP receptor with a chimeric G protein containing sequences from Gαs and Gαq enable the GIP receptor to stimulate calcium flux.
The results of the dose response curve to varying concentrations of GIP with a subset of the photoproteins are summarized in FIG. 5.
as §3
The EC50 value for receptor-mediated calcium flux induced by the ligand was determined by plotting luminescence (Y-axis) versus ligand concentration applied to the cells (X-axis), and applying a sigmoidal dose-response curve-fitting algorithm (GraphPad Prism). GPCR-mediated signals of the various modified forms of Clytin having an amino acid substitution at position 168 were also related to the nature of the side chain. In addition, the subcellular location of the photoproteins (cytosolic vs mitochondrial) appeared to have an effect on GPCR-mediated signals. […] All of the other mitochondrially targeted mutants except for Clytin K168R and wild-type Clytin yielded results that were in the range of those observed for wt-Aequorin.

H1 histamine receptor [4] = target: T2, H1 histamine receptor; test: H1 histamine receptor-mediated bioluminescence in U-2OS cells (FIG. 3); settings: total bioluminescence at 20 seconds
Excerpt: as §1
In another experiment, the ability of the various photoproteins to detect calcium flux in live cells was assessed by adding varying concentrations of histamine to cells in order to activate the H1 histamine receptor followed by measurement of bioluminescence of the various photoproteins. […] On the second day, the cells were trypsinized, counted, and plated in a white tissue-culture treated 96-well plate (COSTAR) at a density of about 50,000 cells/well in growth media consisting of DMEM containing 10% fetal bovine serum, non-essential amino acids, HEPES and penicillin/streptomycin. […] 50 μl/well of histamine at varying concentrations in HBSS/HEPES containing both Ca^2+ and Mg^2+ was added to the cells and total bioluminescence was measured at 20 seconds using a Victor2 luminometer.

TRPA1 cation channel = target: T3, TRPA1 cation channel (Homo sapiens, UniProt O75762); test: Ion channel-mediated bioluminescence in HEK293 cells stably expressing TRPA1, induced by AITC; settings: HEK293 cells stably expressing TRPA1, AITC 10^−6 to 10^−3.5 M
T3 construct: host or cells: HEK293
T3 sequence (O75762 whole entry): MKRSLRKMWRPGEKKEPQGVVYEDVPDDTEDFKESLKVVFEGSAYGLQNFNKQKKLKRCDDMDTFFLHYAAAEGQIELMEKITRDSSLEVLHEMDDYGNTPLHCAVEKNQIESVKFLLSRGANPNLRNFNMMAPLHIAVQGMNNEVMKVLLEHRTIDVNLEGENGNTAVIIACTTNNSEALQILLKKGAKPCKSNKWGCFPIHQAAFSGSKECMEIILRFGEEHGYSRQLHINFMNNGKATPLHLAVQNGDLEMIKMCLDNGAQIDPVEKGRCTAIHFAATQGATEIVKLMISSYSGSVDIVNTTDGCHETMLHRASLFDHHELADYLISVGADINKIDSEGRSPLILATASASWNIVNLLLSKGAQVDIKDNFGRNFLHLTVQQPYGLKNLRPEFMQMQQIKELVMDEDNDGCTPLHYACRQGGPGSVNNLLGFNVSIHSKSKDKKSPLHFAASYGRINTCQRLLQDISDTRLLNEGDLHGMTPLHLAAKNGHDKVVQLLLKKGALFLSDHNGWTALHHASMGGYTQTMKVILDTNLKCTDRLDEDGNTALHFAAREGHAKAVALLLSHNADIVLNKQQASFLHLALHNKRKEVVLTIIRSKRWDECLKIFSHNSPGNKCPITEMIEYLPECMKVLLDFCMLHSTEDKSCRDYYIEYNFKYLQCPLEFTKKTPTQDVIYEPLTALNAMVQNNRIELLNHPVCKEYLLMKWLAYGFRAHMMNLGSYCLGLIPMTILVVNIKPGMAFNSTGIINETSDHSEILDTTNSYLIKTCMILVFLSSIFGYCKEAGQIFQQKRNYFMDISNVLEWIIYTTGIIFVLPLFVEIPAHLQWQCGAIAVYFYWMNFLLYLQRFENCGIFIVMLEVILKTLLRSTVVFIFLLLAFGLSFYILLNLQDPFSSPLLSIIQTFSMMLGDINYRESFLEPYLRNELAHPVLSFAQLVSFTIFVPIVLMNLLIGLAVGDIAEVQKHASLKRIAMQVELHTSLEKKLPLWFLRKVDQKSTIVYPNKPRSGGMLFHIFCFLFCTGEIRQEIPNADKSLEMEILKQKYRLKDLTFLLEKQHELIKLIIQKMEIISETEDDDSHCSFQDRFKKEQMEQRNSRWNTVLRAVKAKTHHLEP

[5] = listed as cytosolic Clytin K168D

Molecule | EC50 [1] | EC50 [2] | GPCR-mediated signal as % of the total signal (H1 histamine receptor [3]) | Max signal with GIP (RLU × 10^−5) (GIP Receptor) | EC50 (GIP Receptor) | % GPCR/total (GIP Receptor) | Signal: background with GIP (GIP Receptor) | signal intensities, GIP dose response (FIG. 5) (GIP Receptor) | Max signal with GIP (RLU × 10^−5) (GIP Receptor; listed as mt-Clytin K168D) | EC50 for GIP (nM) (GIP Receptor) | % GPCR/total (GIP Receptor; listed as mt-Clytin K168D) | Signal: background with GIP (GIP Receptor; listed as mt-Clytin K168D) | luminescence induced by histamine (H1 histamine receptor [4]) | Max signal with GIP (RLU × 10^−5) (GIP Receptor; [5]) | % GPCR/total (GIP Receptor; [5]) | Signal: background with GIP (GIP Receptor; [5]) | EC50 (AITC dose response) (TRPA1 cation channel) | signal (AITC-induced bioluminescence) (TRPA1 cation channel)
B1 | 269 nM | 235 nM | about 70% | 4.68 RLU × 10^−5 | 11.3 nM | 23.9% | 84.7 | – | – | – | – | – | – | – | – | – | – | –
B2 | 129 nM | 160 nM | ~100% | 7.90 RLU × 10^−5 | 9.1 nM | 34.4% | 188.2 | significantly higher signal intensities than any of the wild-type photoproteins | maximal signal | lowest EC50 | highest % GPCR/total | highest signal to background ratio | – | – | – | – | – | –
B3 | 1350 nM | 545 nM | about 30% | 3.14 RLU × 10^−5 | 12.9 nM | 6.8% | 146.5 | – | – | – | – | – | – | – | – | – | – | –
B4 | – | 160 nM | ~100% | 8.76 RLU × 10^−5 | 4.01 nM | 55.6% | 74.3 | significantly higher signal intensities than any of the wild-type photoproteins | – | lowest EC50 | – | – | much higher luminescence than the other forms of Clytin and Aequorin | highest maximal signal | highest % GPCR/total | highest signal to background ratio | lower EC50 than cytosolic wild-type Clytin | higher signal than cytosolic and mitochondrial Aequorin
